Measured values as given in publication PMC12102758.

Target: SkSGL from Sanguibacter keddieii fused with a His6-tag at the C-terminus (Group 2 / GH193 β-1,2-glucanase) (Sanguibacter keddieii)
Assay: SEC; Superdex 200 (HiLoad 16/60), 20 mM Tris-HCl (pH 7.5) in place of 50 mM Tris-HCl (pH 8.0); size by protein markers

SkSGL from Sanguibacter keddieii fused with a His6-tag at the C-terminus (Group 2 / GH193 β-1,2-glucanase) (enzyme)
stoichiometry N: 2
